Data from patent US11505576B2, “Polypeptides based on a scaffold” (AFFIBODY AB, priority 2018, dated 2022).
“Also recorded” adds a separate entry of the source.

Columns and labels:
[1] = biological target: T1, insulin (Homo sapiens, UniProt P01308); assay: Kinetic analysis using surface plasmon resonance (Biacore T200), immobilized insulin; type: binding
T1 construct: purchased Roche 1376497
Protocol: Kinetic constants (ka and kd) and affinities (KD) were determined for His6-tagged Y variants using a Biacore T200 instrument (GE Healthcare). Target proteins C4, IL-6 and insulin, respectively, were immobilized in separate flow cells on the carboxylated dextran layer of different CM5 chip surfaces (GE Healthcare). Immobilization was performed using amine coupling chemistry according to the manufacturer's protocol and PBS pH 7.4 supplemented with 0.1 Tween20 (PBST 0.1%) as running buffer. The ligand immobilization levels on the surfaces were 3280-8830 RU for C4, 495-1184 RU for IL-6, and 270-282 RU for insulin. One flow cell surface on each chip was activated and deactivated for use as blank during analyte injections. In the kinetic experiment, PBST 0.1% was used as running buffer at a flow rate of 30 μl/min. The analytes, i.e. Y variants, were each diluted in PBST 0.1 buffer at concentrations of 1000, 500, 100, 50 and 10 nM and injected for 5 min, followed by dissociation in running buffer for 3 min. After dissociation, the surfaces were regenerated with one injection of 30 μl 10 mM HCl. Kinetic constants were calculated from the sensorgrams using the Langmuir 1:1 model of Biacore T200 Evaluation software 2.0 (GE Healthcare).
(§1) Produced Y variants were subjected to CD and SPR analyses according to the methods described in Example 1.
(§2) The Y variants were cloned, produced and characterized according to the general methods described in Example 1. Produced Y variants with point mutations and/or N-terminal or C-terminal extensions were subjected to CD and SPR analyses as described in Example 1.
(§3) Produced Y variants were subjected to CD and SPR analyses according to the methods described in Example 1. In addition, CD spectra of selected IL-6 binding variants were also recorded at 60, 70, 80 and 90° C.
(§4) The Y variants were cloned, produced and characterized according to the general methods described in Example 1. Produced Y variants with point mutations were subjected to CD and SPR analyses as described in Example 1. In addition, CD spectra of the IL-6 binding variants were also recorded at 60, 70, 80 and 90° C.

[2] = Circular dichroism spectroscopy analysis (CD spectra, variable temperature measurement, refolding); type: physicochemical
Protocol: The respective Y variant was diluted to 0.5 mg/ml in PBS. A CD spectrum at 250-195 nm was obtained at 20° C. In addition, a variable temperature measurement (VTM) was performed to determine the melting temperature (Tm). In the VTM, absorbance was measured at 221 nm while the temperature was raised from 20° C. to 90° C. with a temperature gradient of 5° C./min. A new CD spectrum was obtained at 20° C. after the heating procedure, in order to study the refolding ability of the Y variants. The CD measurements were performed on a Jasco J-810 spectropolarimeter (Jasco Scandinavia AB) using a cell with an optical path length of 1 mm.
as §1, §2, §3, §4

[3] = Fraction of soluble product on expression in E. coli, estimated from SDS-PAGE; type: physicochemical
Protocol: E. coli T7E2 cells were transformed with plasmids containing the gene fragment of each respective Y variant. The resulting recombinant strains were generally cultivated in media supplemented with 50 μg/ml kanamycin at 30-37° C. in 50 ml scale using the EnPresso protocol (Enpresso GmbH). In order to induce protein expression, isopropyl-β-D-1-thiogalactopyranoside (IPTG) was added to a final concentration of 0.5 mM at an optical density at 600 nm (OD600) of approximately 10. After induction, the cultures were incubated for 16 h. The cells were harvested by centrifugation. Alternatively, the culture was performed at 37° C. in 980 ml of TSB-YE medium (tryptic soy broth 30 g/l supplemented with yeast extract 5 g/l) supplemented with 50 μg/ml kanamycin, and protein expression induced with 0.2 mM IPTG at OD600=2, followed by incubation for 5 h before harvesting of the cells by centrifugation. The total yield as well as the fraction of soluble and insoluble product of the respective Y variant was estimated based on SDS-PAGE analysis.

[4] = Table 2, His6-tagged Y variant, MGSSHHHHHHGSS-[Y#####]-ASGSVD
[5] = Table 3, mutation study 1, MGSSHHHHHHGSS-[Y#####]
[6] = Table 2, Ylib001Naive.I selection, MGSSHHHHHHGSS-[Y#####]-ASGSVD, 0.5 mg/ml in PBS, 221 nm, 20-90° C.
[7] = Table 4, mutation study 2, MGSSHHHHHHGSS-[Y#####]
[8] = Table 8, mutation study 4, MGSSHHHHHHGSS-[Y#####]

T1 sequence (P01308 25-54 limits assumed): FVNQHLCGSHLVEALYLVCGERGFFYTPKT
T1 sequence (P01308 90-110 limits assumed): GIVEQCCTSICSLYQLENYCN

Kd [1, 5] [nM] | Substance | Tm [2, 5] [°C] | also measured
63 | Y00032: insulin binding Y variant from Ylib001Naive.I, SEQ ID NO:90 (LAEAKEAAIAELDSKGVGAYQKSFIELAKSVEHVELLKEAILADLP; Engineered insulin binding Y variant) | 49 | Kd [1, 4]: 50 nM; α-helical content / ability to fold into an α-helical structure ([2]; CD spectrum at 20° C.): considerably higher α-helical content; also recorded: good ability to fold into an α-helical structure; Tm [2, 6]: 47 °C; Tm [2, 7]: 49 °C
130 | Y00263: insulin binding Y variant, Y00032 with D13K, SEQ ID NO:110 (LAEAKEAAIAELKSKGVGAYQKSFIELAKSVEHVELLKEAILADLP; Engineered insulin binding Y variant) | 43 | –
77 | Y00270: insulin binding Y variant, Y00032 with K22I + S23K, SEQ ID NO:117 (LAEAKEAAIAELDSKGVGAYQIKFIELAKSVEHVELLKEAILADLP; Engineered insulin binding Y variant) | 52 | Tm [2, 7]: 52 °C
110 | Y00272: insulin binding Y variant, Y00032 with A28G, SEQ ID NO:119 (LAEAKEAAIAELDSKGVGAYQKSFIELGKSVEHVELLKEAILADLP; Engineered insulin binding Y variant) | 34 | –
77 | Y00273: insulin binding Y variant, Y00032 with E32Q, SEQ ID NO:120 (LAEAKEAAIAELDSKGVGAYQKSFIELAKSVQHVELLKEAILADLP; Engineered insulin binding Y variant) | – | –
59 | Y00275: insulin binding Y variant, Y00032 with E39Q, SEQ ID NO:122 (LAEAKEAAIAELDSKGVGAYQKSFIELAKSVEHVELLKQAILADLP; Engineered insulin binding Y variant) | 54 | –

More lines, now with the values behind:

Substance | Kd [1, 5] [nM] | Tm [2, 5] [°C] | also measured
Y00125: insulin binding Y variant, SEQ ID NO:106; differs from Y00032 by N in position 9 (LAEAKEAANAELDSKGVGAYQKSFIELAKSVEHVELLKEAILADLP; Engineered insulin binding Y variant) | – | – | Kd [1, 4]: 110 nM; Tm [2, 6]: 35 °C
Y00264: insulin binding Y variant, Y00032 with K15Y, SEQ ID NO:111 (LAEAKEAAIAELDSYGVGAYQKSFIELAKSVEHVELLKEAILADLP; Engineered insulin binding Y variant) | 64 | 48 | –
Y00265: insulin binding Y variant, Y00032 with V17I, SEQ ID NO:112 (LAEAKEAAIAELDSKGIGAYQKSFIELAKSVEHVELLKEAILADLP; Engineered insulin binding Y variant) | 120 | 47 | –
Y00266: insulin binding Y variant, Y00032 with G18S, SEQ ID NO:113 (LAEAKEAAIAELDSKGVSAYQKSFIELAKSVEHVELLKEAILADLP; Engineered insulin binding Y variant) | 56 | 50 | –
Y00267: insulin binding Y variant, Y00032 with A19E, SEQ ID NO:114 (LAEAKEAAIAELDSKGVGEYQKSFIELAKSVEHVELLKEAILADLP; Engineered insulin binding Y variant) | 59 | 48 | –
Y00268: insulin binding Y variant, Y00032 with K22I, SEQ ID NO:115 (LAEAKEAAIAELDSKGVGAYQISFIELAKSVEHVELLKEAILADLP; Engineered insulin binding Y variant) | 84 | 49 | –
Y00269: insulin binding Y variant, Y00032 with S23K, SEQ ID NO:116 (LAEAKEAAIAELDSKGVGAYQKKFIELAKSVEHVELLKEAILADLP; Engineered insulin binding Y variant) | 390 | 50 | –
Y00271: insulin binding Y variant, Y00032 with E26Q, SEQ ID NO:118 (LAEAKEAAIAELDSKGVGAYQKSFIQLAKSVEHVELLKEAILADLP; Engineered insulin binding Y variant) | 47 | 49 | –
Y00274: insulin binding Y variant, Y00032 with E35Q, SEQ ID NO:121 (LAEAKEAAIAELDSKGVGAYQKSFIELAKSVEHVQLLKEAILADLP; Engineered insulin binding Y variant) | 56 | 53 | –
Y00276: insulin binding Y variant, Y00032 with A43K, SEQ ID NO:123 (LAEAKEAAIAELDSKGVGAYQKSFIELAKSVEHVELLKEAILKDLP; Engineered insulin binding Y variant) | 76 | 50 | –
Y00292: insulin binding Y variant, Y00032 with S23K + E35Q + E39Q, SEQ ID NO:124 (LAEAKEAAIAELDSKGVGAYQKKFIELAKSVEHVQLLKQAILADLP; Engineered insulin binding Y variant) | – | – | Kd [1, 7]: 450 nM; Tm [2, 7]: 57 °C
Y00293: insulin binding Y variant, Y00270 with E35Q + E39Q, SEQ ID NO:125 (LAEAKEAAIAELDSKGVGAYQIKFIELAKSVEHVQLLKQAILADLP; Engineered insulin binding Y variant) | – | – | Kd [1, 7]: 490 nM; Tm [2, 7]: 56 °C
Y00294: insulin binding Y variant, Y00270 with E35Q + A43K, SEQ ID NO:126 (LAEAKEAAIAELDSKGVGAYQIKFIELAKSVEHVQLLKEAILKDLP; Engineered insulin binding Y variant) | – | – | Kd [1, 7]: 490 nM; Tm [2, 7]: 54 °C
Y00295: insulin binding Y variant, Y00270 with E35Q + E39Q + A43K, SEQ ID NO:127 (LAEAKEAAIAELDSKGVGAYQIKFIELAKSVEHVQLLKQAILKDLP; Engineered insulin binding Y variant) | – | – | Kd [1, 7]: 580 nM; Tm [2, 7]: 52 °C
Y00356: insulin binding Y variant, SEQ ID NO:140, template of mutation study 4 (LAEAKEAAIAELDSKGVGAKYIKMIQHAHYVEVVQWLKQAILAHLP; Engineered insulin binding Y variant) | – | – | Tm [2, 8]: 57 °C; Estimated soluble fraction [3, 8]: 43%
Y02310: C4 binding Y variant from Ylib002Naive.I, SEQ ID NO:36 (LAEAKEAAIAELDSKGVGADLIKKIQYADTVEGVQFWKQEILAWLPA; Engineered C4 binding Y variant) | – | – | Tm ([2]; Table 7, MGSSHHHHHHGSS-[Y#####]-A): 56 °C; Estimated soluble fraction ([3]; Table 7, Ylib002Naive.I selection, MGSSHHHHHHGSS-[Y#####]-A): 100%
Y02674: insulin binding Y variant, Y00356 with K15Y, SEQ ID NO:146 (LAEAKEAAIAELDSYGVGAKYIKMIQHAHYVEVVQWLKQAILAHLP; Engineered insulin binding Y variant) | – | – | Tm [2, 8]: 55 °C; Estimated soluble fraction [3, 8]: 40%
Y02683: insulin binding Y variant, Y00356 with I9L, SEQ ID NO:148 (LAEAKEAALAELDSKGVGAKYIKMIQHAHYVEVVQWLKQAILAHLP; Engineered insulin binding Y variant) | – | – | Estimated soluble fraction [3, 8]: 92%
